Reference: patent US20250163182A1 (Janssen / Centocor, published 2025)

T1: ENPP1 on CHOK1 cells (UniProt P22413 1-925, limits assumed)
T1 construct: whole, on cells; also called ectonucleotide pyrophosphatase/phosphodiesterase family member 1; CHO ENPP1 OE
T1 sequence (looked up): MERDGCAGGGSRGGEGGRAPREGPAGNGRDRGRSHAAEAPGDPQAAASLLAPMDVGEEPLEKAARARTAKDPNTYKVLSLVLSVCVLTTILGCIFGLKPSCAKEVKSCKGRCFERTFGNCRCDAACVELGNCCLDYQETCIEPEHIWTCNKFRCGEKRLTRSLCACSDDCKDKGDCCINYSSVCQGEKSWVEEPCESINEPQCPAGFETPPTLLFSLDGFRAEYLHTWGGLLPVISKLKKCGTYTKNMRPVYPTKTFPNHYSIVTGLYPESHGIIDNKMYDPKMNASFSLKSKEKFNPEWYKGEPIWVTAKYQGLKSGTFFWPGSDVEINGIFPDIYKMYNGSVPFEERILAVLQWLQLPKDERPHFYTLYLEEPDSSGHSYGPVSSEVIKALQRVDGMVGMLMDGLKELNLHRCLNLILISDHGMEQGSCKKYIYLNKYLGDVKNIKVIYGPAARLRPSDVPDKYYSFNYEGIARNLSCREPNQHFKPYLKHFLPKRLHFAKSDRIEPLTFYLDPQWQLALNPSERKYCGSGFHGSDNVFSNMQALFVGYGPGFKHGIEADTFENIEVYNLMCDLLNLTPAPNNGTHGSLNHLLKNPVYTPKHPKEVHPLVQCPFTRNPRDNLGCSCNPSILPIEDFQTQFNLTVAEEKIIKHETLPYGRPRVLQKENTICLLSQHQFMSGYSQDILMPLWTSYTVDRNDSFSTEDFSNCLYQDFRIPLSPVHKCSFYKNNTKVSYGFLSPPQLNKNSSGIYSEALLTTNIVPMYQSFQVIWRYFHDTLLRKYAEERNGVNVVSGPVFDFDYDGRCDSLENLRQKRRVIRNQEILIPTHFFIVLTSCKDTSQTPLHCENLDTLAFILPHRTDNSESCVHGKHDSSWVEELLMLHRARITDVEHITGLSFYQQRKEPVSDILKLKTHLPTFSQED

T2: human ENPP3 on cells (human, UniProt O14638 1-875)
T2 construct: whole, on cells; also called ENPP3 on A704, VMRCRCW, HepG2, TUHR4TKB, TUHR10TKB; CHO-K1 ENPP3 OE
T2 sequence (looked up): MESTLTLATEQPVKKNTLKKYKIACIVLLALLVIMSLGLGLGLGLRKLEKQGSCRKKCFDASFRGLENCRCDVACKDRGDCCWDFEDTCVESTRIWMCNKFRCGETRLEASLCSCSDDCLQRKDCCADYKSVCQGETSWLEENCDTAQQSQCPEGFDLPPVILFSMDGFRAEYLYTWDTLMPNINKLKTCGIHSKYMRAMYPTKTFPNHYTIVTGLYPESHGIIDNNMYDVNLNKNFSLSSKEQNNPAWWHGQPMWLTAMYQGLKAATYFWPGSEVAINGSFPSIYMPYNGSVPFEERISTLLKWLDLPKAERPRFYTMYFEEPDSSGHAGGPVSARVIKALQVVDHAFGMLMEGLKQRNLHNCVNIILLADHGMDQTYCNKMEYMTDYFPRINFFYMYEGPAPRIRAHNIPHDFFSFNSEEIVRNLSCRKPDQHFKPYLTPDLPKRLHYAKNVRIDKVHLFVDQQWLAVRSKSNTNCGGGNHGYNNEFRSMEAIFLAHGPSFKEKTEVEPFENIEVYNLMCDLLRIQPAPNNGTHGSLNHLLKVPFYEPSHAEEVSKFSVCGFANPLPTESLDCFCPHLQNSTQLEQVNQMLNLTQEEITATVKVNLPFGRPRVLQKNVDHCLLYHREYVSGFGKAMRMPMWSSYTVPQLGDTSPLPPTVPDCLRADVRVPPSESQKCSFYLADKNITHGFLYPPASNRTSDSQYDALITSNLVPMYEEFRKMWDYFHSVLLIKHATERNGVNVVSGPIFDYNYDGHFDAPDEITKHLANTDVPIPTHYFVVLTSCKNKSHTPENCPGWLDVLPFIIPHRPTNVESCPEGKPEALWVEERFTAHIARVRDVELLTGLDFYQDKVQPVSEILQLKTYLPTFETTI

B1: NPP3B194 (bispecific antibody, IgG1)
VH: EVQLVESGGGRVKPGGSLRLSCAASGFTFSDYSMNWVRQAPGKGLEWVSSISSISSYVKYADSVKGRFTMSRDNAKNSLFLQMNSLRDEDMAVYYCARGHYFDYWGQGTLVTVSS
VL: EIVMTQSPATLSVSPGERATLSCRASQSVSSNLAWYQQKPGLAPRLLIYGASTRATGIPARFSGSGSGTEFTLTISSLQSEDFAVYYCQQYNNWPRTFGQGTKVEIK
scFv: EIVLTQSPATLSASPGERVTLSCSASSSVSYMNWYQQKPGQAPRRWIYDSSKLASGVPARFSGSGSGRDYTLTISSLEPEDFAVYYCQQWSRNPPTFGGGTKVEIKGGSEGKSSGSGSESKSTGGSQVQLVQSGAEVKKPGSSVKVSCKASGYTFTRSTMHWVKQAPGQGLEWIGYINPSSAYTNYNQKFQGRVTLTADKSTSTAYMELSSLRSEDTAVYYCASPQVHYDYAGFPYWGQGTLVTVSS
notes: ENPP3 Fab as VH1-CH1-hinge-CH2-CH3 IgG1 with hole T366S, L368A, Y407V and VL1-CL; scFv in VL-linker-VH-Fc orientation; also called unstapled (scFv) ENPP3×CD3; ScFv version of NPP3B815
B2: NPP3B232 (bispecific antibody, IgG1)
VH: QVQLQESGPGLVKPSETLSLTCTVSGGSISNYYWSWIRQPAGKGLEWIGRIYASGSTNYNPSLKSRVTMSVDTSKNQFSLRLRSVTATDTAVYYCAREGYSSTLYDNAFDFWGQGTMVTVSS
VL: DIQMTQSPSSVSASVGGRVTITCRASQGISTWLAWYQQKPGKAPKLLIYAASSLQSGVPSRFSGSGSGTDFTLTISSLQPEDFATYYCQQANSFPLTFGGGTKVEIK
scFv: B1 scFv
notes: Fab-IgG1 (hole) plus scFv-Fc in VL-linker-VH-Fc orientation
B3: NPP3B239 (bispecific antibody, IgG1)
VH: EVQLVESGGGLVKPGGSLRLSCAASGFIFSDYSMNWVRQAPGKGLEWVSSISSGSSYIYYADSLKGRFTISRDNAKNSLYLQMSSLRAEDTAVYYCVRGLDYFDYWGQGALVTVSS
VL: DIQMTQSPSFLSASVGDRVTITCRASQDISNYLAWYQQKPGRAPKLLIYVASTLQSGVPSRFSGSGSGTEFTLTISSLQPEDFATYYCQQLNSYPRTFGQGTKVEIK
scFv: B1 scFv
notes: Fab-IgG1 (hole) plus scFv-Fc in VL-linker-VH-Fc orientation; also called NPP3B239.003

target: T1, ENPP1 on CHOK1 cells; assay: flow cytometry on CHO cells overexpressing ENPP1

| Binder | binding result |
| --- | --- |
| B1 | no binding (tested: Log(ug/mL) about 1.1 (about 12 ug/mL)) |
| B2 | no binding (tested: Log(ug/mL) about 1.1 (about 12 ug/mL)) |
| B3 | no binding (tested: Log(ug/mL) about 1.1 (about 12 ug/mL)) |

target: T2, human ENPP3 on cells; assay: flow cytometry on CHO cells overexpressing ENPP3
Protocol: To evaluate the specificity of binders to ENPP3 compared to other ENPP family members, cell binding was assessed on CHOK1 cells overexpressing ENPP1, ENPP2, or ENPP3 (FIG. 9).

| EC50 (read off the curve) [µg/mL] | Binder |
| --- | --- |
| ~0.5 | B1 |
| ~0.5 | B2 |
| ~1 | B3 |

target: ENPP2 on CHOK1 cells (UniProt Q13822 36-863); assay: flow cytometry on CHO cells overexpressing ENPP2

| Binder | binding result |
| --- | --- |
| B1 | no binding (tested: Log(ug/mL) about 1.1 (about 12 ug/mL)) |
| B2 | no binding (tested: Log(ug/mL) about 1.1 (about 12 ug/mL)) |
| B3 | no binding (tested: Log(ug/mL) about 1.1 (about 12 ug/mL)) |
